Common to all, as to assay: cell-based or functional assay
In experiment [1] the target is HA of H3N2 influenza virus A/Sydney/5/97 (influenza A virus H3N2 A/Sydney/5/97).
For experiment [2], the target named is HA of H2N2 influenza virus A/Ann Arbor/6/60, CA (influenza A virus H2N2 A/Ann Arbor/6/60, CA).
For experiment [3], the target named is HA of H3N2 influenza virus A/Brisbane/10/07 (influenza A virus H3N2 A/Brisbane/10/07).
Experiment [4] concerns the target HA of H3N2 influenza virus A/Beijing/32/92-R-H3 (influenza A virus H3N2 A/Beijing/32/92-R-H3).
Experiment [5] addresses HA of H1N1 influenza virus A/OH/07/2009 (influenza A virus H1N1 A/OH/07/2009).
Experiment [6] deals with HA of H3N2 influenza virus A/Beijing/353/89-X109 (influenza A virus H3N2 A/Beijing/353/89-X109).
In experiment [7] the target is HA of H3N2 influenza virus A/Wisconsin/67/05 (influenza A virus H3N2 A/Wisconsin/67/05).
Experiment [8] addresses HA of H9N2 influenza virus A/Green-winged teal/209/TX/2009 (influenza A virus H9N2 A/Green-winged teal/209/TX/2009).
Experiment [9] deals with HA of H3N2 influenza virus A/Nanchang/933/95 (influenza A virus H3N2 A/Nanchang/933/95).
Experiment [10] concerns the target HA of H3N2 influenza virus A/Hong Kong/68 (influenza A virus H3N2 A/Hong Kong/68).
For experiment [11], the target named is HA of H3N2 influenza virus A/Panama/2007/99 (influenza A virus H3N2 A/Panama/2007/99).
Experiment [12] concerns the target HA of H3N2 influenza virus A/Johannesburg/33/94 R-H3 (influenza A virus H3N2 A/Johannesburg/33/94 R-H3).

In US20140234336A1 one finds MN titer and MN assay: lowest antibody concentration data, which are given here for 1 substance.

As for CT149 antibody, the MN titer is 0.625 µg/mL in experiment [1]; > 20 µg/mL in experiment [2]; 0.625 µg/mL in [3]; 0.078 µg/mL in [4]; 10 µg/mL in [5]; 0.156 µg/mL in [6]. The MN titer worked out at 0.156 µg/mL in [8], 0.625 µg/mL in experiment [9], 0.312 µg/mL in experiment [11] and 0.625 µg/mL in experiment [12]. In addition, the MN assay: lowest antibody concentration at which no virus antigen was detected was 1.25 µg/mL in [3], 1.25 µg/mL in experiment [7] and 2.5 µg/mL in experiment [10].
